Test results reported in article PMC4963197, “Phosphorylation acts positively and negatively to regulate MRTF-A subcellular localisation and activity” (eLife, 2016).

Molecular target: G-actin (UniProt P68135)
Assay: size exclusion chromatography

Question: For MRTF-A(67–199) L74A; L78A, which other: actins (apparent stoichiometry of G-actin binding) is on record?
Answer: The other: actins (apparent stoichiometry of G-actin binding) was 2.2.
